Data reported in patent US20180171001A1.

Key:
[1] = biological target: Env of HIV-1 strain YU2.DG (HIV-1)
[2] = biological target: SC4226618 (Human immunodeficiency virus 1)
[3] = biological target: Tro11 (Human immunodeficiency virus 1)

Substance “chimeric IgG: 8ANC195 HC paired with the LC from 3BNC117 (antibody)” has an IC50 (fold change over 8ANC195 IgG), pseudovirus neutralization [panel B] [1] of 12 fold, an IC50 (fold change over 8ANC195 IgG), pseudovirus neutralization [panel B] [2] of 32 fold and an IC50 (fold change over 8ANC195 IgG), pseudovirus neutralization [panel B] [3] of 17 fold.
